The values that follow come from publication PMC8246471.

In this series the target is PriA helicase (UniProt P17888 1-732). The experiment in a line: ATPase DNA titration.
Sequence of PriA helicase (P17888 whole entry): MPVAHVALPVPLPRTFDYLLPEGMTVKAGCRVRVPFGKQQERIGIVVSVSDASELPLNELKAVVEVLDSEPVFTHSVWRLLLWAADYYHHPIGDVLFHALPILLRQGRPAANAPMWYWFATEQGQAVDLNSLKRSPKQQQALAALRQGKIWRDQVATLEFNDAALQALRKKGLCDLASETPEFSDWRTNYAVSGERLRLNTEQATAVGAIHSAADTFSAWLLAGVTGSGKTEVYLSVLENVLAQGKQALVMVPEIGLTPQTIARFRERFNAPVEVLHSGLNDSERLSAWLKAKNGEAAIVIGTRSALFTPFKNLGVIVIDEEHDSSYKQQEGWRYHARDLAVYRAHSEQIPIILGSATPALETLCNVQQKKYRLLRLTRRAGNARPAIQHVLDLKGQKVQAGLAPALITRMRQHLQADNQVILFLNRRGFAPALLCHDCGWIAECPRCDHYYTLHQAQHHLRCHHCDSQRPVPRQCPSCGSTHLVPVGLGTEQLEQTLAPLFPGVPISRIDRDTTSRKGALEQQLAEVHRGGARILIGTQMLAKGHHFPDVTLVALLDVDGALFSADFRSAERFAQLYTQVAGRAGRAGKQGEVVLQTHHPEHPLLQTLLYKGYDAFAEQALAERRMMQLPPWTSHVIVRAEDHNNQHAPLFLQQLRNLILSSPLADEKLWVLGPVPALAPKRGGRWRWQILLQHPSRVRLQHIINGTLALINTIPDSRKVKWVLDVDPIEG

B1: Fork 1 (mixed)
DNA 1: CTAGAGACGCTGCCGAATTCTGGCTTGGATCTGATGCTGTCTAGAGGCCTCCACTATGAAATCGCTGCA
DNA 2: CCGGGCTGCAGAGCTCATAGATCGATAGTCTCTAGACAGCATCAGATCCAAGCCAGAATTCGGCAGCGTCT
Turning to B1, the “apparent K (half saturation)” value amounted to 5.7 ± 0.7 nM.
